Measured values: paper PMC6193743, “Phosphoglucomutase 1 inhibits hepatocellular carcinoma progression by regulating glucose trafficking”

What was measured:
HIS-CNBP [1] = target: T1, HIS-CNBP (Homo sapiens, UniProt P62633 1-177); assay: EMSA; Chemiluminescent EMSA Kit (Thermo) binding buffer, room temperature, 20 min, 5% polyacrylamide gel; salt and pH not stated; details: protein: recombinant; tags: His (pET-28a); potential G4
HIS-CNBP [2] = target: T1, HIS-CNBP; assay: competition; unlabeled G20 competes with biotin-G20; Chemiluminescent EMSA Kit (Thermo) binding buffer, room temperature, 20 min, 5% polyacrylamide gel; salt and pH not stated; details: protein: recombinant; tags: His (pET-28a); potential G4

T1 sequence (P62633 whole entry): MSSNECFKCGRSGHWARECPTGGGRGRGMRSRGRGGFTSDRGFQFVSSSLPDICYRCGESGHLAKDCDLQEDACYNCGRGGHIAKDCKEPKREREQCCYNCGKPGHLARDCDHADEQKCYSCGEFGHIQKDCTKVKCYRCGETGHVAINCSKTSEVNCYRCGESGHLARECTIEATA

Binder	binding result (HIS-CNBP [1])	binding result (HIS-CNBP [2])
GGGCTGGCGCGGAGGGAGGG (ssDNA) [Biotin-G20]	binds	
GGGCTGGCGCGGAGGGAGGG (ssDNA) [G20 unlabeled]		binds
